Measurements as given in the DeepSol protein solubility set.

experiment: soluble on expression in E. coli; label from the status in PepcDB or PDB records

Row | Sequence | soluble on expression in E. coli
1 | MLEILGKASSINVRKVLWTCAELDLPYRREDWGSGFRDTHAAEFLALNPNAMVPVLRDGELVLWESNSIIRYLANRYAGERLYPQQAAPRARVDQWLDWQASDLNRSWSYAFMSLVRQSPAHRDAAQVEASLRGWTGFMEILEGQLLRTGAYVAGETFSLADIAIGLSVNRWYETPFEHPSLPAVRAYYERLGAR | not soluble
2 | MQRTGELPAEHVPVILESSGAGDFHLIDSGNGLKLEQYGDYRVVRPEAQALWRPLVPDRVWQNADAIFTGDTDEDGMGRWRFPKEALGETWPLSLLGVEFLGRFTAFRHVGVFPEQIVHWEWLKNAVETADRPLKVLNLFGYTGVASLVAAAAGAEVTHVDASKKAIGWAKENQVLAGLEQAPIRWICEDAMKFIQREERRGSTYDIILTDPPKFGRGTHGEVWQLFDHLPLMLDICREILSPKALGLVLTAYSIRASFYSMHELMRETMRGAGGVVASGELVIREAGLDGKTPGRVLSTSLFSRWEPK | soluble
3 | MPVELKSFDEFVKVVERAVECRVKRGKDVVKIKARTKRYLYTLKVPPEKEAEVLEQVKAKCKNLVELLEHHHHHHLEHHHHHHLEHHHHHHLEHHHHHHLEHHHHHHLEHHHHHHLEHHHHHH | not soluble
4 | GFLSHLDIVSTFNDHLAQRHDLDPYTVTLTVREGGEVVYIGCRNSAQPLGHTFRIGMRLPAPFTATGKILLSDLGPGELRMLFSQFPQPLTSRSVAGLSQLEEELALTRARGYSIDDGQIREGMLCIGAAIRDYSGAASAGIAISLIRSEASDEKIASLGEELRTTANALSEKLGYRSQKD | soluble
5 | MGSDKIHHHHHHMSDSQTVSAAVAKLYNTYPFPPEALLDEPPPGYNWRWNWLAAHNFCTGQKPQKQDIRILDAGCGTGVSTEYLVHLNPQASVVGIDLSTGALDVAKERCQRSGANRVEFHHLSLFDVEQLPGEFDLINCVGVLHHTSDPIRGIQALAQKLAPGGLMHIFVYGELGRWEIQLMQKAIALLQGDKKGDYRDGVQVGRQIFASLPENNRIVKYEKQRWSLENHKDEHFADMYVHPQEIDYNIETLFELIDASGLEFIGFSNPSFWDLERLLSKAPELVERAKELSDRQLYRLIELLDPEVTHYEFFLGRPPLVKTDWSDDKALLAAIPELNPCIEGFPSQCFFNYNYQIVNLSEPEFEFMQKCDANSTVAEILADVQLGLDEVRKLLQQQLILLAPA | not soluble
6 | MVRHRLPSSTYYTPAGEPEWSREMFGEQSIAVLSGAYRNPIEMARHVAARCGSYQPFFVMDVAAIERRLEALRVMLPRVRPNYAVACNADPVLARVLSNNIDVNFEVSNTAELELVSMNVEPSRAVFCSQLMTRKAIKNAVLAGCSTFVVESEKQVTDVMNASPEAEIILAVCLPYSTGEVPFGCSVDEIEEILDMAHLLGANVTGIYLELGLRATLEDYITSVHDARSIFETADQKFLTLRRVCFGNLSVPTGADGAVNNEFMSFCNSLNNVIDDLFESNIDFSASIGRFLVTNAFTLCTNVIGKRAMDAKFITNDDFDDGVGFVYQTNDGVYGSFGCKQMDIKPLCKPLDVENDSEEQLHFGTILGPTLDGTDVAQRLMKSRQLRVGEWLVWEQMGAFTIPVDSEHSVPPVYYYSGKECWQKLIHKDEQRRSPSPSVSDNEDIGSDGEGGYASSCEDSEAEMALEPLIEDLNEFF | not soluble
7 | MGKKKSDTASGGAIPEGDNEKGKKIFKQRCEQCHVVNSLQTKTGPTLNGVIGRQSGQVAGFDYSAANKNKGVVWDRQTLFDYLADPKKYIPGTKMVFAGLKKADERADLIKFIEVEAAKKPSA | not soluble
8 | MQDLSFSTIENHLGPAKDRFFGDGFKHVEYSARHVNLTESEANASISLSYPANWSKKNDSGELIPHLSSIDALTISINLSQDILLNRFKSIDHCWVRRISIRAGKKPEEDLRNINAKITKESQGLDSQGDTNLIFGGNVGTMTVQLEFIIPAAHEVDTIKDSTEKNCYSLHFKNRTQFIDDIIFYSPLNAISKLFVANDNEPHFLPGGIEANYPNIINPVDSLVSHAQIAQALLYKLDGLTRGESNTLWMRNLNIIAENPAKRRAATRLLVTELKRANIVSLKGENWRVAEVAGHMNGITFSSSVAHLLPL | not soluble
9 | MGKLFGTFGVRGIANEKITPEFAMKIGMAFGTLLKREGRKKPLVVVGRDTRVSGEMLKEALISGLLSVGCDVIDVGIAPTPAVQWATKHFNADGGAVITASHNPPEYNGIKLLEPNGMGLKKEREAIVEELFFKEDFDRAKWYEIGEVRREDIIKPYIEAIKSKVDVEAIKKRKPFVVVDTSNGAGSLTLPYLLRELGCKVITVNAQPDGYFPARNPEPNEENLKEFMEIVKALGADFGVAQDGDADRAVFIDENGRFIQGDKTFALVADAVLKEKGGGLLVTTVATSNLLDDIAKKHGAKVMRTKVGDLIVARALYENNGTIGGEENGGVIFPEHVLGRDGAMTVAKVVEIFAKSGKKFSELIDELPKYYQIKTKRHVEGDRHAIVNKVAEMARERGYTVDTTDGAKIIFEDGWVLVRASGTEPIIRIFSEAKSKEKAQEYLNLGIELLEKALS | soluble
10 | MAHHHHHHMSSITGAAYSSPEYTHCIRDSRFRHNVYEPEADTFLFLDALDKDAELLRSIRPDRCVEVGCGSGAVITHLRCLLMPSVAAAATQELEAETPELCCGASGIRSAVGGPMFCAVDVNPLALEATAITWTETLLKYFRETVLAAFYERIFQSAVPTSLAAPVVLSAEGVSPPLTRVDADDPTSSALSASTFCLHRFHGDLLNALPRGNSAPALFDVVLFNPPYVPTSLKELQDAITQRDVITTAWCGGPRGRVVLDRFLRQLPSVLSRRGVCYVVLIKENNATDVVAFAQAAFREHLRCSGTETVKDEDDVLEASEVAARYTGEHLSVYRLRYVPRFQTP | not soluble
11 | MAGDPMMSITIEQIRGALAGVADPQTGLELNVCVKDRDIHLAADPAALTIELGYPAGGVADSVRALAGAALAAAGLGAVRVAVTWNIIAHAVQPGLKPLPQVRNIIAVASGKGGVGKSTTAVNLALALAAEGARAGLLDADIYGPSVPAMLGLAGRPESRDNKTMEPLVGHGLQANSIGLLIDADAPAIWRGPMVTQALEQLLRQTNWRDLDYLVVDMPPGTGDIALTLAQKVPVAGAVIVTTPQDIALLDARKGLRMFQKVHVPILGVVENMAVHICPQCGHAEHIFGAGGGRRVAEQYEVPWLGSLPLQRAIREQTDAGNPTVAAEPESEVAGIYRDIARRVAARIAGLPRDMAGKLPAVVVRPALEHHHHHH | not soluble
12 | MGSDKIHHHHHHMKLSCSQSELNNALQLVSRAVSNRPTHPVLANVLLAADEVTGKLRLTGFDLSLGIQTSISASIDSSGAITLPAKLFGEIVSKLSNDSPLVLTSDETSQQVELTSKSGTYQVRGMLSDDFPELPLVENGTSFKLNPLLLSNAIKSTLFASSTDDAKQLLTGVNLTFDGYGIESAATDGHRLAVLNLNNILSDSKEIDSSIKFEKFSITLPSKSLREVEKFLSTCDISHPINFFIDKGQVVFISVEDIITIRALEGSYPNYSQLLPDTFENELEFDRKEFISSLERIAVLADQHNNVIKVTTDGSANLIKISTDAQDIGTGYESLPVSYKGDSFQIAFNVRYLLDGLKVIDSNLIKLSCNSPTTPAIFSPINSDVNFTYLVMPIQIRN | not soluble
13 | MRLEECRKRLEELEAAREELLKVLREMRIHSTKSIALIHAGKVEEAEQELKKAIELLEKVKAYREYPEIYFYLCNDAMQELVEAIAFKNAISGEFTFEIDLEVTPAAFLNGFADAVGELRRYALTKLIEGDFKSAERMLEVMEKIYERLMEFTTFPDKLVSGLRKKLDVARGGIERTKSDYIAAKVARLNESLGGN | not soluble
14 | MLKKYLISLDKDIQRRELFFSQKNTEDFQVFSAINTMQKDWDELAAIFNIEQFKAHYFRNVTKGEIGCTLSHLSVYQKIVEDNDIAEDSYALVCEDDALFHSDFQQNLTALLSEKLEAEIILLGQSKINDFNDFDLEINYPTTFSFLCKKTGDVNYAFPYKSYFAGTVGYLIKKSAARRFIQQISQNKPFWLADDFLLFEQNFNIRNKVVRPLIVIENPVLISNLESVRGSLSNNLLKKLMKYPLKKIFAIKKNLAN | soluble
15 | MGSDKIHHHHHHMSDTITFWGVRGSIACPFPGHMAYGGNTSCVALGLGGQTVILDAGTGIRALGASAALRGVSRLALLFSHVHRDHIEGFPFFAPAHDRAVRLDIFAGPIEGASIRQLLDNLMSRPMFPLSLDQLRAQKVFHDLPAATAFTLFERIKVRTAALNHPGGATAYRFEHGGRVVCYVTDTEHRPGQPDAGLLELIAGADYVLYDSTYTDREFAAHRGWGHSTWEEGVRLCRQAGARHLVIFHHDPDHDDAAMAAIETAARAAWGGTLVAREGMTIALDSGVVTQAGR | not soluble
16 | MSLKVALLQIDTVVGDIVGNAARIADAVREAASLGARLCVTPELALCGYPPRDLLLQDDFVPACRKALEALAQQLRDLPPVLVGAPVPNPSPVGNPIHNCAVLLREGKVTVATRKVLLPNYDVFDERRYFESGVGCGVVTIDGWRFGVTICEDVWNDKTFWQEHRHYENDPVADLMAGGADAILNLSASPFTLGKQAVRERMLSRVAFRYRVSVLYANQVGGNDDLVFAGKSIAFDATGTLIARGRSFAEDIVMVDVAQATGTITAEPTSDEEQVWKALVLGTRDYARKCGFDGAVLGLSGGIDSALVAAVAAEALGPDKVLGVLMPSPHSSEGSVTDALALASSLGIATCTIPIGDLMHGFEAALAQAFAGREADVTEENIQSRIRGNLLMALSNKQRRLLLTTGNKSELAVGYCTIYGDMAGGLAVIADLPKTLVYRVAHWLNERDTSHGHEGREARETIPSAILTKEPSAELRPGQRDSDSLPPYDVLDGILERLVELRRSAADIVAEGYDVETVRKVLRLVCNAEFKRRQAPPGLKVTDRAFGTGWRMPVAARVNLGEGHHHHHH | soluble
17 | LKSADHGGRLAYDNGRYGDGDGLTQNGGVNGGLRFGESGFLNLSAQFREQARTIRAGIDQRTGHYGNPSIGDPSLHRQALAYNAGVALDDNVELYSFATYTHRSVSSAQIYQLPSLAPRLYPNGFTPRITSDEDDYSLTLGARGGELFGAWDWDLSSTYGADRPEIGMDHSINLALYGETGDSPRSFDLARYKATQWTNNLDLRRDFDLAWLPAPLNFSWGLEQRRELYEVEAGDPWSYYNGGSKALPGQAPATAGQWSRDVLGAYLDLSIALDERWQLETAARYEHYSDFGSTTNGKLASRYRFSPEVSARASLSSGFRAPSLAQENYTS | not soluble
18 | MNLLIDNWIPVRPRNGGKVQIINLQSLYCSRDQWRLSLPRDDMELAALALLVCIGQIIAPAKDDVEFRHRIMNPLTEDEFQQLIAPWIDMFYLNHAEHPFMQTKGVKANDVTPMEKLLAGVSGATNCAFVNQPGQGEALCGGCTAIALFNQANQAPGFGGGFKSGLRGGTPVTTFVRGIDLRSTVLLNVLTLPRLQKQFPNESHTENQPTWIKPIKSNESIPASSIGFVRGLFWQPAHIELCDPIGIGKCSCCGQESNLRYTGFLKEKFTFTVNGLWPHPHSPCLVTVKKGEVEEKFLAFTTSAPSWTQISRVVVDKIIQNENGNRVAAVVNQFRNIAPQSPLELIMGGYRNNQASILERRHDVLMFNQGWQQYGNVINEIVTVGLGYKTALRKALYTFAEGFKNKDFKGAGVSVHETAERHFYRQSELLIPDVLANVNFSQADEVIADLRDKLHQLCEMLFNQSVAPYAHHPKLISTLALARATLYKHLRELKPQGGPSNG | soluble
19 | MAISKRHIGPYIIRETLGEGSFGKVKLATHYKTQQKVALKFISRQLLKKSDMHMRVEREISYLKLLRHPHIIKLYDVITTPTDIVMVIEYAGGELFDYIVEKKRMTEDEGRRFFQQIICAIEYCHRHKIVHRDLKPENLLLDDNLNVKIADFGLSNIMTDGNFLKTSCGSPNYAAPEVINGKLYAGPEVDVWSCGIVLYVMLVGRLPFDDEFIPNLFKKVNSCVYVMPDFLSPGAQSLIRRMIVADPMQRITIQEIRRDPWFNVNLPDYLRPMEEVQGSYADSRIVSKLGEAMGFSEDYIVEALRSDENNEVKEAYNLLHENQVIQEKLEHHHHHH | soluble
